Data taken from the supplement of paper PMC9732359.
± gives the uncertainty stated by the source.

Experiment: protein stability index of a GFP-peptide fusion (yeast GPS) (PSI 1-4); higher = more stable; sorted into four equal gates, so the index is relative within each strain
Outline: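 Yeast carrying a pooled library were grown to mid-log phase in leucine-free medium. Each library plasmid expresses Cherry and has a tiled 17-residue yeast protein peptide fused downstream of GFP. Cells were sorted into four equal gates by GFP/Cherry ratio, and plasmids from each gate were PCR-amplified, Illumina-sequenced and assigned to strains by barcode. Summing, across gates, the read frequency times the gate number gave each peptide's protein stability index.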

Sequence | protein stability index (doa10∆) | protein stability index (pdr5∆) | protein stability index (san1∆) | protein stability index (ubr1∆)
LDDLQVILAKNENETRD [PGD1] | 3.27 ± 0.099 | 3.05 ± 0.08 | 2.93 ± 0.14 | 3.38 ± 0.078
VKDLGQGLKLAKKHKLN [SMC3] | 3.12 ± 0.11 | 2.92 ± 0.13 | 2.83 ± 0.097 | 2.81 ± 0.068
QREFKEIMEERNVEQKL [NNF1] | – | – | 2.79 ± 0.24 | –
NQILMSVNFFVSLLKKN [RPL1A] | 1.84 ± 0.052 | 2.35 ± 0.046 | 2.15 ± 0.075 | 2.39 ± 0.04
LGNSIVKESNNYYSNKS [REC8] | 2.68 ± 0.15 | – | 2.94 ± 0.3 | –
DDINKAKAVWENIIIVG [ARP9] | 1.58 ± 0.05 | 2.17 ± 0.082 | 1.67 ± 0.092 | 2.03 ± 0.073
NVTTILDEIFSGCDSTK [ECM29] | 2.28 ± 0.12 | 2.8 ± 0.087 | 2.48 ± 0.073 | 2.63 ± 0.042
NLNRAFNGDQVIVELLP [DIS3] | 3.17 ± 0.11 | 2.92 ± 0.18 | – | 3.45 ± 0.15
CFCEDHCDKCSVVLTLQ [RPB3] | 3.12 ± 0.14 | 3.15 ± 0.14 | 2.42 ± 0.19 | 2.51 ± 0.17
KVFDTLTRFSHDADLEV [RPN1] | 2.44 ± 0.073 | 2.31 ± 0.054 | 2.44 ± 0.063 | 2.67 ± 0.047
CSHCGCVYVPNFNASLQ [SNM1] | 3.36 ± 0.11 | 2.42 ± 0.11 | 3.13 ± 0.16 | 1.51 ± 0.1
FQVHERLAPLIKEENDM [ARP7] | – | 3.58 ± 0.17 | 2.97 ± 0.15 | 3.22 ± 0.28
YILRYLHANGASFFFMV [COB] | 1.57 ± 0.041 | 1.27 ± 0.033 | 1.39 ± 0.081 | 1.36 ± 0.038
NITDYETHPDNSNKQAV [BRR2] | 2.81 ± 0.047 | 3 ± 0.045 | 2.73 ± 0.037 | 2.9 ± 0.034
RCYQPFELFDNKTAHLS [SNU114] | 2.27 ± 0.1 | 2.71 ± 0.08 | 2.53 ± 0.061 | 2.24 ± 0.041
IQEIKESVELPLTHPEL [RPT2] | 2.7 ± 0.073 | 2.97 ± 0.069 | 2.74 ± 0.068 | 2.75 ± 0.035
TDEALFENVKLLAEYDN [MED4] | 3.02 ± 0.11 | 3.17 ± 0.1 | 3.08 ± 0.088 | 2.87 ± 0.073
ESILQMNQGEGEPEAGN [RPC34] | 3 ± 0.2 | 3.18 ± 0.093 | 3.46 ± 0.26 | 3 ± 0.13
KYKSNTNNMEKIIEDLR [SMC2] | 3.21 ± 0.061 | 3.23 ± 0.055 | 3.23 ± 0.034 | 3.2 ± 0.034
GSGAANENPYNNGVSNL [COR1] | 3.02 ± 0.17 | 2.94 ± 0.14 | 3.15 ± 0.11 | 2.79 ± 0.17
AELKLAGEFGLKNKKEI [RPS9A] | 3.08 ± 0.11 | 3.21 ± 0.15 | 3.2 ± 0.18 | 3.21 ± 0.12
KAALERLKVFEGIPPPY [RPL16A] | 2.57 ± 0.096 | 2.84 ± 0.12 | 3.09 ± 0.092 | 2.69 ± 0.085
NGNDESSEYETINISLS [NUT1] | 3.16 ± 0.12 | 3.32 ± 0.2 | 3.06 ± 0.12 | 3.58 ± 0.25
NRTFTDPPFRIEEQGWG [TAF14] | 3.11 ± 0.067 | 3.24 ± 0.057 | 3.11 ± 0.1 | 3.07 ± 0.054
NLATWYHSAGGRDKHAL [SSN3] | 3.49 ± 0.17 | 3.54 ± 0.15 | 3.16 ± 0.11 | 3.42 ± 0.08
KTTDHLFDAAFYMKKDA [RPO31] | 3 ± 0.075 | 3.21 ± 0.071 | 3.21 ± 0.05 | 3.05 ± 0.054
KPALKVSKEGLYQLVDI [YMR129W/POM152] | 3.18 ± 0.13 | 3.1 ± 0.12 | 3.14 ± 0.074 | 3.02 ± 0.082

Sequence | protein stability index (doa10∆) | protein stability index (pdr5∆) | protein stability index (san1∆) | protein stability index (ubr1∆)
ADNKEDVKKPFSFGTSQ [YLR335W/NUP2] | 3.42 ± 0.1 | 3.09 ± 0.096 | 2.75 ± 0.16 | 3.13 ± 0.099
GWKPYYKLFIWLVVPTI [YML031W/NDC1] | 1.28 ± 0.049 | 1.2 ± 0.044 | 1.19 ± 0.09 | 1.16 ± 0.044
FSERAAMFAALQQKQQQ [SWI1] | 1.7 ± 0.042 | 2.15 ± 0.042 | 2.05 ± 0.078 | 2.01 ± 0.027
KQVQISHHLKADTIDHD [YGL172W/NUP49] | 2.91 ± 0.067 | 3.09 ± 0.053 | 2.79 ± 0.065 | 2.92 ± 0.043
EEQDVDMTGDEEQEEEP [RPC19] | – | – | – | 2.76 ± 0.28
VEETEVPTVPPSQSEEQ [MED4] | 2.73 ± 0.079 | 2.69 ± 0.1 | 2.43 ± 0.13 | 2.74 ± 0.055
EVYNVIASDGSYVNYRH [RPO21] | 3.41 ± 0.11 | 3.58 ± 0.085 | 2.88 ± 0.12 | 3.08 ± 0.091
IHLLHDDRGPVLESIVA [BRR2] | 2.48 ± 0.089 | 1.78 ± 0.06 | 3.24 ± 0.05 | 2.63 ± 0.11
LSFTPTTVIGIRGSDQA [RPN2] | 1.65 ± 0.089 | 1.61 ± 0.073 | 1.78 ± 0.15 | 1.59 ± 0.062
QLAPSSVDPQSSSTQNV [DIS3] | 2.99 ± 0.084 | 3.21 ± 0.079 | 2.8 ± 0.081 | 2.63 ± 0.098
LGKQSSSLLSRLISSKM [FAS2] | 2.98 ± 0.065 | 2.94 ± 0.065 | 3.02 ± 0.078 | 2.7 ± 0.048
GSFKYITARSAFVEFGA [SWP82] | 2.62 ± 0.11 | 3.11 ± 0.074 | 2.96 ± 0.069 | 2.56 ± 0.056
EKLAVSALEQAIIYQRG [YGL100W/SEH1] | 2.04 ± 0.097 | 2.38 ± 0.11 | 2.11 ± 0.096 | 2.4 ± 0.12
LNAELESKLIPQENDLE [SMC3] | 3.12 ± 0.1 | 3.16 ± 0.076 | 3.23 ± 0.075 | 3.15 ± 0.057
REILCYSKDAKEIYYTP [FAS2] | 2.679 ± 0.024 | 2.821 ± 0.025 | 2.701 ± 0.025 | 2.71 ± 0.019
VYEYVIASTLGPSAMRL [RPC82] | 2.38 ± 0.21 | – | 1.6 ± 0.14 | 1.23 ± 0.097
NVLKAPFIKSESKPFSS [SIR4] | 2.65 ± 0.068 | 2.81 ± 0.088 | 2.6 ± 0.064 | 3.03 ± 0.059
NAAGNTPDATKIKAILE [RPP2A] | 3.13 ± 0.089 | 3.32 ± 0.092 | 2.99 ± 0.085 | 3.19 ± 0.054
LQMRLKESEISHNENKM [YIL149C/MLP2] | 2.94 ± 0.065 | 2.96 ± 0.068 | 3.18 ± 0.068 | 3.18 ± 0.09
MQVLNTKSETKQENETM [MED11] | 2.79 ± 0.081 | 2.16 ± 0.11 | 1.41 ± 0.26 | 2 ± 0.092
IMGFISYHNGNLKGRPY [FAS2] | 3 ± 0.13 | 2.95 ± 0.11 | 3.28 ± 0.057 | 3.01 ± 0.12
TFIYFAYFLIIVPVIST [COB] | 1.68 ± 0.05 | 1.3 ± 0.046 | 1.16 ± 0.087 | 1.1 ± 0.027
EQWITIESQMRDLILTE [PRP8] | 2.78 ± 0.088 | 3.1 ± 0.092 | 3.08 ± 0.073 | 3.14 ± 0.077
ISSLIGGFEYFLQPLLL [NUT1] | 1.21 ± 0.058 | 1.27 ± 0.08 | 1.33 ± 0.16 | 1.38 ± 0.19
ERKKSIGSQRGRRLSML [DSN1] | 3.18 ± 0.11 | 2.53 ± 0.087 | 3.13 ± 0.098 | 2.92 ± 0.093
LVYQYKGAGLSMGTMIC [PRE2] | 2.06 ± 0.083 | 2.3 ± 0.097 | 2.18 ± 0.16 | 2.24 ± 0.11
TGSDREVQRILIELLTQ [RPT3] | 3.02 ± 0.14 | – | – | 3.5 ± 0.23
